Molecular target: FLAG-HA-PTEN, P60484
Sequence (P60484 whole entry): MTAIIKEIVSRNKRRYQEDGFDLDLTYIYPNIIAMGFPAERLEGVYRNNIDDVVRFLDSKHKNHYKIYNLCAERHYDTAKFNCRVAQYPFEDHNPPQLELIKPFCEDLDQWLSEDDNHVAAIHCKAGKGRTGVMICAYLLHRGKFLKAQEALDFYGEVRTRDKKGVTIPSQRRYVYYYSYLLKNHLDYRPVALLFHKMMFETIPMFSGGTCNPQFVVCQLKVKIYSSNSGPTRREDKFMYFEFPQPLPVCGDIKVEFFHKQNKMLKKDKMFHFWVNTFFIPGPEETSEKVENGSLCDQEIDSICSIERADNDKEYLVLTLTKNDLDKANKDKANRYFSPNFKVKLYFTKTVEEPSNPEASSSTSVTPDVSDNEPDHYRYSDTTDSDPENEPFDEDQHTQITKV

B1: Lyn (protein)
chain: GCIKSKGKDSLSDDGVDLKTQPVRNTERTIYVRDPTSNKQQRPVPESQLLPGQRFQTKDPEEQGDIVVALYPYDGIHPDDLSFKKGEKMKVLEEHGEWWKAKSLLTKKEGFIPSNYVAKLNTLETEEWFFKDITRKDAERQLLAPGNSAGAFLIRESETLKGSFSLSVRDFDPVHGDVIKHYKIRSLDNGGYYISPRITFPCISDMIKHYQKQADGLCRRLEKACISPKPQKPWDKDAWEIPRESIKLVKRLGAGQFGEVWMGYYNNSTKVAVKTLKPGTMSVQAFLEEANLMKTLQHDKLVRLYAVVTREEPIYIITEYMAKGSLLDFLKSDEGGKVLLPKLIDFSAQIAEGMAYIERKNYIHRDLRAANVLVSESLMCKIADFGLARVIEDNEYTAREGAKFPIKWTAPEAINFGCFTIKSDVWSFGILLYEIVTYGKIPYPGRTNADVMTALSQGYRMPRVENCPDELYDIMKMCWKEKAEERPTFDYLQSVLDDFYTATEGQYQQQP
For B1, the “phosphorylation of PTEN on Y240 (Western blot with anti-pY240)” value was “Upon co-expression of the Lyn cDNA with PTEN in HEK 293 cells, we observed a robust phosphorylation of PTEN on Y240” and the “phosphorylation of Y240 of PTEN (Western blot, FIG. 15)” value was “the phosphorylation of Y240 is much greater in the presence of lyn than when src is expressed with PTEN”.

Source: patent publication US20120165340
